Assay [1] has as its target RapZ (Escherichia coli, UniProt P0A894). Nature of the assay: SPR (Biacore, single-cycle kinetics); also co-purification detected by HILIC-MS/MS. The format is binding.
Assay [2] has as its target T1, Strep-RapZ (N-terminally Strep-tagged RapZ) (Escherichia coli, UniProt P0A894 1-284).
T1 construct: it is not measured here; also called YhbJ; source: purified recombinant protein (procedure in the Appendix Supplementary Methods); not shown: Strep, N-terminal, kept
T1 sequence (looked up): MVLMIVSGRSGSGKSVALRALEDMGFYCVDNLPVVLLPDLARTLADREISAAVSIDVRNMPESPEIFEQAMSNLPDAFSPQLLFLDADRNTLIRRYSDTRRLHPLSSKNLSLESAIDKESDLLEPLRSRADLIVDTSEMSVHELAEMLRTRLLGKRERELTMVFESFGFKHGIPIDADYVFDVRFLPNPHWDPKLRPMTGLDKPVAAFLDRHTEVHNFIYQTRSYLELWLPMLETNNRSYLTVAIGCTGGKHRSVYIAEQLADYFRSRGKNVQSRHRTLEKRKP
Nature of the assay: SPR; Biacore T200, 25°C; Strep-RapZ (200–400 RU) captured on a CM5 chip coated with Strep-Tactin XT; QseE-His10 or QseF-His10 injected at 10 nM, 50 nM, 2 × 100 nM, 250 nM, 500 nM and 1,000 nM, multicycle; HBS-EP buffer (10 mM HEPES pH 7.4, 150 mM NaCl, 3 mM EDTA, 0.005% P20); overall affinities. The note with it: both partners purified. (Surface plasmon resonance follows binding to a sensor surface in real time, without labels.)

The term Kd denotes a measure of binding affinity in units of concentration. A word on the koff: it is a measure of how fast the partners let go of each other. High values mean a short-lived complex, low ones a long-lived complex. Broadly, the kon is a measure of how fast the partners come together. Lower therefore signals slow association.

With `N[C@H]1C(O)O[C@H](COP(=O)(O)O)[C@@H](O)[C@@H]1O` (stereo partly shown) [GlcN6P], the Kd in assay [1] came to 0.186 µM.

B1: QseE’-His10 (soluble cytoplasmic C-terminal part of kinase QseE, aa 196–475, with the HAMP and transmitter domains) (domain or fragment, Escherichia coli, UniProt P52101 196-475, looked up)
chain: MIIGPVKNIERMINRLGEGRSLGNSVSFSGPSELRSVGQRILWLSERLSWLESQRHQFLRHLSHELKTPLASMREGTELLADQVVGPLTPEQKEVVSILDSSSRNLQKLIEQLLDYNRKQADSAVELENVELAPLVETVVSAHSLPARAKMMHTDVDLKATACLAEPMLLMSVLDNLYSNAVHYGAESGNICLRSSLHGARVYIDVINTGTPIPQEERAMIFEPFFQGSHQRKGAVKGSGLGLSIARDCIRRMQGELYLVDESGQDVCFRIELPSSKNTK
notes: Histidine kinase QseE (a.k.a. GlrK, YfhK) of Escherichia coli, cytoplasmic part aa 196-475 (HAMP and transmitter domains); also called His10-tagged QseE’; GlrK; source: purified recombinant protein (procedure in the Appendix Supplementary Methods)
B1: in assay [2], the dissociation constant (Kd) amounted to 12 µM, the koff was 0.054 s⁻¹ and the kon was found to be 4500 M⁻¹ s⁻¹.

For the origin of these results see paper PMC7073468, “Small RNA‐binding protein RapZ mediates cell envelope precursor sensing and signaling in Escherichia coli” (The EMBO Journal, 2020).
